Measured values taken from patent US20100075897A1, “METHOD FOR S[…] BIOACTIVE PEPTIDES AND APPLICATION THEREOF” (JINAN UNIVERSITY, priority 2008, published 2010).
Where two headings read alike, the source gives them in different places. Ends that are not written are not given here.

B1: Phage ID NO. 6 (M13 phage displaying the peptide of SEQ ID NO. 6, LPHSHRAHSLPP) (peptide)
peptide: LPHSHRAHSLPP
modifications: also: displayed on M13 phage coat protein
notes: Tested as whole phage particles, not as free peptide; not shown: not described
B2: DP4.3 fusion polypeptide (peptide)
peptide: PNICLPRWGCLWDFNPRGSHAEGTFTSDVSSYLEGQAAKEFIAWLVKGRG
notes: ABP-LK-GLP fusion polypeptide; also called ABP-LK-GLP
B3: DP3.1 fusion polypeptide (peptide)
peptide: PDICLPRWGCLWEFNPRGAHAEGTFTSDVSSYLEGQAAKEFIAWLVKGRG
notes: as for B2
B4: DP3.2 fusion polypeptide (peptide)
peptide: PDICLPRWGCLWEFNPRGPHAEGTFTSDVSSYLEGQAAKEFIAWLVKGRG
notes: as for B2
B5: DP3.3 fusion polypeptide (peptide)
peptide: PDICLPRWGCLWEFNPRGSHAEGTFTSDVSSYLEGQAAKEFIAWLVKGRG
notes: as for B2
B6: DP4.1 fusion polypeptide (peptide)
peptide: PNICLPRWGCLWDFNPRGAHAEGTFTSDVSSYLEGQAAKEFIAWLVKGRG
notes: as for B2
B7: Phage ID NO. 5 (M13 phage displaying the peptide of SEQ ID NO. 5, LPWHLKYREPPR) (peptide)
peptide: LPWHLKYREPPR
modifications: also: displayed on M13 phage coat protein
notes: as for B1
B8: DP8.1 fusion polypeptide (peptide)
peptide: PSLLHWTHKIPALFNPRGAHAEGTFTSDVSSYLEGQAAKEFIAWLVKGRG
notes: as for B2
B9: DP8.2 fusion polypeptide (peptide)
peptide: PSLLHWTHKIPALFNPRGPHAEGTFTSDVSSYLEGQAAKEFIAWLVKGRG
notes: as for B2
B10: Phage ID NO. 1 (M13 phage displaying the peptide of SEQ ID NO. 1, NVCLPKWGCLWE) (peptide)
peptide: NVCLPKWGCLWE
modifications: not fully specified (bridges); cysteine pairing not given here; also: displayed on M13 phage coat protein
notes: as for B1
B11: Phage ID NO. 2 (M13 phage displaying the peptide of SEQ ID NO. 2, DVCLPQWGCLWG) (peptide)
peptide: DVCLPQWGCLWG
modifications: not fully specified (bridges); cysteine pairing not given here; also: displayed on M13 phage coat protein
notes: as for B1
B12: DP8.3 fusion polypeptide (peptide)
peptide: PSSLLHWTHKIPALFNPRGSHAEGTFTSDVSSYLEGQAAKEFIAWLVKGRG
notes: ABP-LK-GLP fusion polypeptide, copied as printed with PSS at the N-terminus (DP8.1 and DP8.2 have PS); also called ABP-LK-GLP
B13: M3.1 fusion polypeptide (peptide)
peptide: DICLPRWGCLWEFNPRGAHAEGTFTSDVSSYLEGQAAKEFIAWLVKGRG
notes: as for B2
B14: M4.2 fusion polypeptide (peptide)
peptide: NICLPRWGCLWDFNPRGPHAEGTFTSDVSSYLEGQAAKEFIAWLVKGRG
notes: as for B2
B15: M4.3 fusion polypeptide (peptide)
peptide: NICLPRWGCLWDFNPRGSHAEGTFTSDVSSYLEGQAAKEFIAWLVKGRG
notes: as for B2
B16: M3.2 fusion polypeptide (peptide)
peptide: DICLPRWGCLWEFNPRGPHAEGTFTSDVSSYLEGQAAKEFIAWLVKGRG
notes: as for B2
B17: Phage ID NO. 4 (M13 phage displaying the peptide of SEQ ID NO. 4, NICLPRWGCLWD) (peptide)
peptide: NICLPRWGCLWD
modifications: not fully specified (bridges); cysteine pairing not given here; also: displayed on M13 phage coat protein
notes: as for B1
B18: M6.1 fusion polypeptide (peptide)
peptide: LPHSHRAHSLPPFNPRGAHAEGTFTSDVSSYLEGQAAKEFIAWLVKGRG
notes: as for B2
B19: M6.2 fusion polypeptide (peptide)
peptide: LPHSHRAHSLPPFNPRGPHAEGTFTSDVSSYLEGQAAKEFIAWLVKGRG
notes: as for B2
B20: PP6.2 fusion polypeptide (peptide)
peptide: LPHSHRAHSLPPFNPRPPHAEGTFTSDVSSYLEGQAAKEFIAWLVKGRG
notes: as for B2
B21: PA6.2 fusion polypeptide (peptide)
peptide: LPHSHRAHSLPPFNPRPAHAEGTFTSDVSSYLEGQAAKEFIAWLVKGRG
notes: as for B2
B22: DP6.1 fusion polypeptide (peptide)
peptide: PLPHSHRAHSLPPFNPRGAHAEGTFTSDVSSYLEGQAAKEFIAWLVKGRG
notes: as for B2
B23: DP6.2 fusion polypeptide (peptide)
peptide: PLPHSHRAHSLPPFNPRGPHAEGTFTSDVSSYLEGQAAKEFIAWLVKGRG
notes: as for B2
B24: M8.1 fusion polypeptide (peptide)
peptide: SLLHWTHKIPALFNPRGAHAEGTFTSDVSSYLEGQAAKEFIAWLVKGRG
notes: as for B2
B25: M8.2 fusion polypeptide (peptide)
peptide: SLLHWTHKIPALFNPRGPHAEGTFTSDVSSYLEGQAAKEFIAWLVKGRG
notes: as for B2
B26: M8.3 fusion polypeptide (peptide)
peptide: SLLHWTHKIPALFNPRGSHAEGTFTSDVSSYLEGQAAKEFIAWLVKGRG
notes: as for B2

Legend:
[1] = target: GLP-1 receptor; assay type: cell-based; conditions: CHO/GLP-1R, 30 minutes; GLP-1 released from ABP-LK-GLP; read-out: cAMP production EC50
Procedure: Samples were rotated and then centrifuged for 5 minutes (2000 g, 4° C.) to acquire precipitation. Supernatant was removed by vacuum and then the precipitation was dissolved into 300 μL of […] Tris buffer (pH7.5, containing […] EDTA), added with sodium bicarbonate (0.15 mg/mL) and zinc sulfate (0.15 mg/mL), followed by being placed on ice for 15 minutes. Centrifugation was performed at 2000 g at 4° C. for […] to remove precipitation and obtain a supernatant. The supernatant was analyzed with [^3H] cAMP competition assay kit (Amersham Biotech, QC).

[2] = target: GLP-1 receptor; conditions: CHO/GLP-1R, competition with 125I-GLP-1; fusion polypeptides after treatment with thrombin and DPP IV; read-out: Receptor binding affinity IC50
Procedure: (§1) The actual experimental steps were extracted from method as described by Montrose-Rafizadeh with proper modification as following:
(§2) (2) After cultured, removing supernatant, washing cells with cold PBS for three times, and then mixing with 0.5 mL 0.5 mol/L NaOH and 0.1% (mg/mL) SDS for 10 minutes. Irradiation of the cell lysis was determined by Apec-Series […] (ICN Biomedicals, Inc., Costa Mesa, Calif.).

[3] = target: T1, human serum albumin (human, UniProt P02768 25-609); test: phage ELISA on plate-coated HSA, Table 3 absorbance (sample minus blank), dilution column 3 of 12
T1 construct: Bought protein; coated on plates (ELISA) or coupled to a CM5 chip (SPR); also called HSA; human albumin
T1 sequence (P02768 25-609 limits assumed): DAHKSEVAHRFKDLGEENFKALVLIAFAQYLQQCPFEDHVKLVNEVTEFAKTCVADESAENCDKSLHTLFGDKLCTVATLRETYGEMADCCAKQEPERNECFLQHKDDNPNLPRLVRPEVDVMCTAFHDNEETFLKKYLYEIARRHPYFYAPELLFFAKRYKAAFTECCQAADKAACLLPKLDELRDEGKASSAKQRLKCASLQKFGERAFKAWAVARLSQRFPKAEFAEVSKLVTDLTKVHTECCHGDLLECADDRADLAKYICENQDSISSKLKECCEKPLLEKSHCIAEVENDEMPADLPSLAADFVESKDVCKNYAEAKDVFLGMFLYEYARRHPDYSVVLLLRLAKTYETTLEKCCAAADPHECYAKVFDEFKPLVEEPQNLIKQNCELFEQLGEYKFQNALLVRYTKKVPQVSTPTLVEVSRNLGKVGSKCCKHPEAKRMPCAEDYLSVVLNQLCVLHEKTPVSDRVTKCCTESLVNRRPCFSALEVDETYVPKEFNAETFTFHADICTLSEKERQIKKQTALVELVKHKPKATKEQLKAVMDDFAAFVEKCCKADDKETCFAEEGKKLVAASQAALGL

[4] = target: T1, human serum albumin; test: phage ELISA on plate-coated HSA, sample row, dilution column 2 of 12
[5] = target: T2, GLP-1 receptor; test: cell-based or functional assay
T2 chain: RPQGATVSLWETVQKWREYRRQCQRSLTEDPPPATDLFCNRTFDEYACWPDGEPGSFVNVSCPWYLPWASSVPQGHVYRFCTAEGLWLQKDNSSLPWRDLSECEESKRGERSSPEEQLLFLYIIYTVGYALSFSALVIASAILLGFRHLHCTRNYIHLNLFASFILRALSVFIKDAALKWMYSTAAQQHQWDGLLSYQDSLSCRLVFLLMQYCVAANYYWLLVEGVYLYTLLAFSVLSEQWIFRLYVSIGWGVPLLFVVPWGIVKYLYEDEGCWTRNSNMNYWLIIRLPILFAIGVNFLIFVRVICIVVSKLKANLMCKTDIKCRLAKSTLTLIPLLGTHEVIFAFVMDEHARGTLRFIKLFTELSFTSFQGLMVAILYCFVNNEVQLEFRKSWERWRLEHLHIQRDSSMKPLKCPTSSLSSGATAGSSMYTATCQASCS

[6] = target: T2, GLP-1 receptor; test: competition with 125I-GLP-1 on CHO/GLP-1R cells; polypeptide digested with thrombin and DPP IV first
Procedure: as §1, §2

[7] = target: T1, human serum albumin; test: phage ELISA on plate-coated HSA, Table 3 absorbance (sample minus blank), dilution column 6 of 12
[8] = target: T1, human serum albumin; test: phage ELISA on plate-coated HSA, Table 3 absorbance (sample minus blank), dilution column 1 of 12
[9] = target: T1, human serum albumin; test: phage ELISA on plate-coated HSA, sample row, dilution column 1 of 12
[10] = target: T1, human serum albumin; test: phage ELISA on plate-coated HSA, Table 3 absorbance (sample minus blank), dilution column 2 of 12
[11] = target: T2, GLP-1 receptor; test: competition with 125I-GLP-1 on CHO/GLP-1R cells

Molecule | cAMP production EC50 [5] [nM] | IC50 [6] [nM] | further results
LPHSHRAHSLPPFNPRPA HAEGTFTSDVSSYLEGQAAKEFIAWLVKGRG [PA6.2] |  |  | EC50 [1]: 23 ± 2.4 nM; IC50 [2]: 2.2 ± 0.7 nM
PLPHSHRAHSLPPFNPRGP HAEGTFTSDVSSYLEGQAAKEFIAWLVKGRG [DP6.2] |  |  | EC50 [1]: 23 ± 2.1 nM; IC50 [2]: 2.1 ± 0.8 nM
LPHSHRAHSLPPFNPRPP HAEGTFTSDVSSYLEGQAAKEFIAWLVKGRG [PP6.2] |  |  | EC50 [1]: 21 ± 2.1 nM; IC50 [2]: 2.3 ± 0.8 nM
PDICLPRWGCLWEFNPRGA HAEGTFTSDVSSYLEGQAAKEFIAWLVKGRG [DP3.1] |  |  | EC50 [1]: 23 ± 2 nM; IC50 [2]: 2.1 ± 0.5 nM
PNICLPRWGCLWDFNPRGA HAEGTFTSDVSSYLEGQAAKEFIAWLVKGRG [DP4.1] |  |  | EC50 [1]: 19 ± 2.1 nM; IC50 [2]: 2.5 ± 0.8 nM
PSSLLHWTHKIPALFNPRGS HAEGTFTSDVSSYLEGQAAKEFIAWLVKGRG [DP8.3] |  |  | EC50 [1]: 23 ± 2.2 nM; IC50 [2]: 2.5 ± 0.6 nM
B1 |  |  | absorbance at 405 nm [3]: 0.05; absorbance at 405 nm [4]: 0.09
B2 | 18 | 2.1 | 
B3 | 23 | 2.1 | 
B4 | 19 | 2.3 | 
B5 | 21 | 2.3 | 
B6 | 19 | 2.5 | 
B7 |  |  | absorbance at 405 nm [7]: 0.08
B8 | 24 | 2.2 | 
B9 | 22 | 1.9 | 
B10 |  |  | absorbance at 405 nm [8]: 0.04; absorbance at 405 nm [4]: 0.09
B11 |  |  | absorbance at 405 nm [3]: 0.04

Molecule | cAMP production EC50 [5] [nM] | IC50 [6] [nM] | further results
B12 | 23 | 2.5 | 
B13 | 22 | 2.2 | 
B14 | 21 | 2.2 | 
B15 | 19 | 2.2 | 
B16 | 21 | 2.1 | 
B17 |  |  | absorbance at 405 nm [9]: 0.08; absorbance at 405 nm [10]: 0.04
FNPRHAEGTFTSDVSSYLEGQAAKEFIAWLVKGRG (GLP-1(7-37) with N-terminal FNPR) [FN-GLP] | > 1000 |  | IC50 [11]: 450 nM
LVPRHAEGTFTSDVSSYLEGQAAKEFIAWLVKGRG (GLP-1(7-37) with N-terminal LVPR) [LV-GLP] | > 1000 |  | IC50 [11]: 467 nM
B18 | 24 | 2.2 | 
B19 | 21 | 2.3 | 
B20 | 21 | 2.3 | 
B21 | 23 | 2.2 | 
B22 | 23 | 2 | 
B23 | 23 | 2.1 | 
B24 | 24 | 2.2 | 
B25 | 21 | 1.9 | 
B26 | 21 | 2.2 | 
